Results: patent publication US11981719 (ALTEOGEN, dated 2024)

T1: recombinant hGH receptor Fc chimera (human, UniProt P10912 19-264)
T1 construct: also called hGH receptor chimera; not shown: Fc part of the chimera
T1 sequence (looked up): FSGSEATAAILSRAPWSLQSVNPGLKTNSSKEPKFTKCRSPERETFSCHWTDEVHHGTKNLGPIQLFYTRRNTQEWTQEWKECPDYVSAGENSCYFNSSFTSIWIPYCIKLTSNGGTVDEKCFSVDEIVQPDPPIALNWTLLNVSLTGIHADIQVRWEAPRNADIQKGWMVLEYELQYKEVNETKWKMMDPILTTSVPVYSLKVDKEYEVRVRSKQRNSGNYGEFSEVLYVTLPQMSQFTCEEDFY

T2: hGH receptor on hGHR/Luc/HEK293F cells (human, UniProt P10912 19-638)
T2 sequence (looked up): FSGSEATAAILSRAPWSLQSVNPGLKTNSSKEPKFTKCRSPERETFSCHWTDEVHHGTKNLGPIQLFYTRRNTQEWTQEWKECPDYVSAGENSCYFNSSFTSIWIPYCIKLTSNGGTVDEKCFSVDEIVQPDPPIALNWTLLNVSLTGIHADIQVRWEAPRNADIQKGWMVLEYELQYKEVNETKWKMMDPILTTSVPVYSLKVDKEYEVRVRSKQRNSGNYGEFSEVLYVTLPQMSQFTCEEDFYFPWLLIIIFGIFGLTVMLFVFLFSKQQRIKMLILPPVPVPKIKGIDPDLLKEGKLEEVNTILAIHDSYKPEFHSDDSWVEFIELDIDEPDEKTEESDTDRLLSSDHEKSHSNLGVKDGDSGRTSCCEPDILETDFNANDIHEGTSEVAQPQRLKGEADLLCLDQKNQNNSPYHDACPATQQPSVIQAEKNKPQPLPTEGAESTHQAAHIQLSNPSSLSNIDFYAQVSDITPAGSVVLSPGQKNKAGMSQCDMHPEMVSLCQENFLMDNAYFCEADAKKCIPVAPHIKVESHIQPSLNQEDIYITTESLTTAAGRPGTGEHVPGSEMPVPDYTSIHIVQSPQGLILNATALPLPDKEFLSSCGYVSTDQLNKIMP


Experiments:
[1] = target: T1, recombinant hGH receptor Fc chimera; experiment: ELISA on plate-coated recombinant hGH receptor Fc chimera, detected with biotinylated anti-hGH polyclonal antibody
Procedure: After additional washing step, 3,3',5,5'-tetramethylbenzidine (TMB) was added to each well to allow TMB reaction. Absorbance signals from the reaction were recorded at 450 nm to 650 nm.

[2] = target: T2, hGH receptor on hGHR/Luc/HEK293F cells; experiment: cell-based or functional assay

Molecule	Relative binding potency (relative to Pegvisomant) [1]	Relative inhibitory potency (relative to Pegvisomant) [2]	Relative binding potency [1]	Relative inhibitory potency [2]
Pegvisomant (ligand)	1	1	–	–
hGH-A10 (ligand, also called hGHRA-NexP) EDPQGDAANKTDTSHHDQDHPTFNKITPNLAEFAFSLYRQLAHQSNSTNIFFSPVSIATAFAMLSLGTKADTHDEILEGLNFNLTEIPEAQIHEGFQELLHTLNQPDSQLQLTTGNGLFLSEGLKLVDKFLEDVKKLYHSEAFTVNFGDTEEAKKQINDYVEKGTQGKIVDLVKELDRDTVFALVNYIFFKGKWERPFEVKDTEEEDFHVDQVTTVKVPMMKRLGMFNIQHCKKLSSWVLLMKYLGNATAIFFLPDEGKLQHLENELTHDIITKFLENEDRRSASLHLPKLSITGTYDLKSVLGQLGITKVFSNGADLSGVTEEAPLKLSKAVHKAVLTIDEKGTEAAGAMFLEAINMSIPPEVKFNKPFVFLMIDQNTKSPLFMGKVVNPTQKFPTIPLSRLFDNAMLRAHRLNQLAFDTYQEFEEAYIPKEQKYSFLQNPQTSLCPSESIPTPSNKEETQQKSNLELLRISLLLIQSWLEPVQFLRSVFANSLVYGASDSNVYDLLKDLEEKIQTLMGRLEDGSPRTGQIFKQTYSKFDTNSHNDDALLKNYGLLYCFNKDMSKVSTYLRIVQCRSVEGSCGF	–	–	6.08 relative to Pegvisomant	17.7 relative to Pegvisomant
hGH-A11 (ligand, also called hGHRA-NexP) EDPQGDAANKTDTSHHDQDHPTFNKITPNLAEFAFSLYRQLAHQSNSTNIFFSPVSIATAFAMLSLGTKADTHDEILEGLNFNLTEIPEAQIHEGFQELLHTLNQPDSQLQLTTGNGLFLSEGLKLVDKFLEDVKKLYHSEAFTVNFGDTEEAKKQINDYVEKGTQGKIVDLVKELDRDTVFALVNYIFFKGKWERPFEVKDTEEEDFHVDQVTTVKVPMMKRLGMFNIQHCKKLSSWVLLMKYLGNATAIFFLPDEGKLQHLENELTHDIITKFLENEDRRSASLHLPKLSITGTYDLKSVLGQLGITKVFSNGADLSGVTEEAPLKLSKAVHKAVLTIDEKGTEAAGAMFLEAINMSIPPEVKFNKPFVFLMIDQNTKSPLFMGKVVNPTQKFPTIPLSRLFDNAMLRADRLNQLAFDTYQEFEEAYIPKEQKYSFLKNPQTSLCFSESIPTPSNREETQQKSNLELLRISLLLIQSWLEPVQFLRSVFANSLVYGASDSNVYDLLKDLEEKIQTLMGRLEDGSPRTGQIFKQTYSKFDTNSHNDDALLKNYGLLYCFRKDMDKVSTFLRTVQCRSVEGSCGF	–	–	9.95 relative to Pegvisomant	17.3 relative to Pegvisomant
hGH-A3 (ligand, also called hGHRA-NexP) FPTIPLSRLFDNAMLRAHRLNQLAFDTYQEFEEAYIPKEQKYSFLQNPQTSLCFSESIPTPSNREETQQKSNLELLRISLLLIQSWLEPVQFLRSVFANSLVYGASDSNVYDLLKDLEEKIQTLMGRLEDGSPRTGQIFKQTYSKFDTNSHNDDALLKNYGLLYCFRKDMDKVSTFLRIVQCRSVEGSCGFEDPQGDAANKTDTSHHDQDHPTFNKITPNLAEFAFSLYRQLAHQSNSTNIFFSPVSIATAFAMLSLGTKADTHDEILEGLNFNLTEIPEAQIHEGFQELLHTLNQPDSQLQLTTGNGLFLSEGLKLVDKFLEDVKKLYHSEAFTVNFGDTEEAKKQINDYVEKGTQGKIVDLVKELDRDTVFALVNYIFFKGKWERPFEVKDTEEEDFHVDQVTTVKVPMMKRLGMFNIQHCKKLSSWVLLMKYLGNATAIFFLPDEGKLQHLENELTHDIITKFLENEDRRSASLHLPKLSITGTYDLKSVLGQLGITKVFSNGADLSGVTEEAPLKLSKAVHKAVLTIDEKGTEAAGAMFLEAINMSIPPEVKFNKPFVFLMIDQNTKSPLFMGKVVNPTQK	–	–	0.925 relative to Pegvisomant	0.957 relative to Pegvisomant
hGH-A7 (ligand, also called hGHRA-NexP) FPTIPLSRLFDNAMLRAHRLNQLAFDTYQEFEEAYIPKEQKYSFLQNPQTSLCPSESIPTPSNKEETQQKSNLELLRISLLLIQSWLEPVQFLRSVFANSLVYGASDSNVYDLLKDLEEKIQTLMGRLEDGSPRTGQIFKQTYSKFDTNSHNDDALLKNYGLLYCFNKDMSKVSTYLRIVQCRSVEGSCGFEDPQGDAANKTDTSHHDQDHPTFNKITPNLAEFAFSLYRQLAHQSNSTNIFFSPVSIATAFAMLSLGTKADTHDEILEGLNFNLTEIPEAQIHEGFQELLHTLNQPDSQLQLTTGNGLFLSEGLKLVDKFLEDVKKLYHSEAFTVNFGDTEEAKKQINDYVEKGTQGKIVDLVKELDRDTVFALVNYIFFKGKWERPFEVKDTEEEDFHVDQVTTVKVPMMKRLGMFNIQHCKKLSSWVLLMKYLGNATAIFFLPDEGKLQHLENELTHDIITKFLENEDRRSASLHLPKLSITGTYDLKSVLGQLGITKVFSNGADLSGVTEEAPLKLSKAVHKAVLTIDEKGTEAAGAMFLEAINMSIPPEVKFNKPFVFLMIDQNTKSPLFMGKVVNPTQK	–	–	4.73 relative to Pegvisomant	1.84 relative to Pegvisomant
hGH-A4 (ligand, also called hGHRA-NexP) FPTIPLSRLFDNAMLRADRLNQLAFDTYQEFEEAYIPKEQKYSFLQNPQTSLCFSESIPTPSNREETQQKSNLELLRISLLLIQSWLEPVQFLRSVFANSLVYGASDSNVYDLLKDLEEKIQTLMGRLEDGSPRTGQIFKQTYSKFDTNSHNDDALLKNYGLLYCFRKDMDKVSTFLRTVQCRSVEGSCGFEDPQGDAANKTDTSHHDQDHPTFNKITPNLAEFAFSLYRQLAHQSNSTNIFFSPVSIATAFAMLSLGTKADTHDEILEGLNFNLTEIPEAQIHEGFQELLHTLNQPDSQLQLTTGNGLFLSEGLKLVDKFLEDVKKLYHSEAFTVNFGDTEEAKKQINDYVEKGTQGKIVDLVKELDRDTVFALVNYIFFKGKWERPFEVKDTEEEDFHVDQVTTVKVPMMKRLGMFNIQHCKKLSSWVLLMKYLGNATAIFFLPDEGKLQHLENELTHDIITKFLENEDRRSASLHLPKLSITGTYDLKSVLGQLGITKVFSNGADLSGVTEEAPLKLSKAVHKAVLTIDEKGTEAAGAMFLEAINMSIPPEVKFNKPFVFLMIDQNTKSPLFMGKVVNPTQK	–	–	2.31 relative to Pegvisomant	1.22 relative to Pegvisomant
hGH-A9 (ligand, also called hGHRA-NexP) FPTIPLSRLFDNAMLRADRLNQLAFDTYQEFEEAYIPKEQKYSFLKNPQTSLCFSESIPTPSNREETQQKSNLELLRISLLLIQSWLEPVQFLRSVFANSLVYGASDSNVYDLLKDLEEKIQTLMGRLEDGSPRTGQIFKQTYSKFDTNSHNDDALLKNYGLLYCFRKDMDKVSTFLRTVQCRSVEGSCGFEDPQGDAANKTDTSHHDQDHPTFNKITPNLAEFAFSLYRQLAHQSNSTNIFFSPVSIATAFAMLSLGTKADTHDEILEGLNFNLTEIPEAQIHEGFQELLHTLNQPDSQLQLTTGNGLFLSEGLKLVDKFLEDVKKLYHSEAFTVNFGDTEEAKKQINDYVEKGTQGKIVDLVKELDRDTVFALVNYIFFKGKWERPFEVKDTEEEDFHVDQVTTVKVPMMKRLGMFNIQHCKKLSSWVLLMKYLGNATAIFFLPDEGKLQHLENELTHDIITKFLENEDRRSASLHLPKLSITGTYDLKSVLGQLGITKVFSNGADLSGVTEEAPLKLSKAVHKAVLTIDEKGTEAAGAMFLEAINMSIPPEVKFNKPFVFLMIDQNTKSPLFMGKVVNPTQK	–	–	4.58 relative to Pegvisomant	1.89 relative to Pegvisomant
hGH-A6 (ligand, also called hGHRA-NexP) FPTIPLSRLFDNAMLRAHRLNQLAFDTYQEFEEAYIPKEQKYSFLQNPQTSLCPSESIPTPSNKEETQQKSNLELLRISLLLIQSWLEPVQFLRSVFANSLVYGASDSNVYDLLKDLEEKIQTLMGRLEDGSPRTGQIFKQTYSKFDTNSHNDDALLKNYGLLYCFRKDMDKVSTYLRIVQCRSVEGSCGFEDPQGDAANKTDTSHHDQDHPTFNKITPNLAEFAFSLYRQLAHQSNSTNIFFSPVSIATAFAMLSLGTKADTHDEILEGLNFNLTEIPEAQIHEGFQELLHTLNQPDSQLQLTTGNGLFLSEGLKLVDKFLEDVKKLYHSEAFTVNFGDTEEAKKQINDYVEKGTQGKIVDLVKELDRDTVFALVNYIFFKGKWERPFEVKDTEEEDFHVDQVTTVKVPMMKRLGMFNIQHCKKLSSWVLLMKYLGNATAIFFLPDEGKLQHLENELTHDIITKFLENEDRRSASLHLPKLSITGTYDLKSVLGQLGITKVFSNGADLSGVTEEAPLKLSKAVHKAVLTIDEKGTEAAGAMFLEAINMSIPPEVKFNKPFVFLMIDQNTKSPLFMGKVVNPTQK	–	–	3.37 relative to Pegvisomant	1.42 relative to Pegvisomant
hGH-A8 (ligand, also called hGHRA-NexP) FPTIPLSRLFDNAMLRADRLNQLAFDTYQEFEEAYIPKEQKYSFLQNPQTSLCFSESIPTPSNREETQQKSNLELLRISLLLIQSWLEPVQFLRSVFANSLVYGASDSNVYDLLKDLEEKIQTLMGRLEDGSPRTGQIFKQTYSKFDTNSHNDDALLKNYGLLYCFNADMSRVSTFLRTVQCRSVEGSCGFEDPQGDAANKTDTSHHDQDHPTFNKITPNLAEFAFSLYRQLAHQSNSTNIFFSPVSIATAFAMLSLGTKADTHDEILEGLNFNLTEIPEAQIHEGFQELLHTLNQPDSQLQLTTGNGLFLSEGLKLVDKFLEDVKKLYHSEAFTVNFGDTEEAKKQINDYVEKGTQGKIVDLVKELDRDTVFALVNYIFFKGKWERPFEVKDTEEEDFHVDQVTTVKVPMMKRLGMFNIQHCKKLSSWVLLMKYLGNATAIFFLPDEGKLQHLENELTHDIITKFLENEDRRSASLHLPKLSITGTYDLKSVLGQLGITKVFSNGADLSGVTEEAPLKLSKAVHKAVLTIDEKGTEAAGAMFLEAINMSIPPEVKFNKPFVFLMIDQNTKSPLFMGKVVNPTQK	–	–	4.64 relative to Pegvisomant	1.42 relative to Pegvisomant
